Experimental findings from IntAct's records for PubMed 18570893 are described below.

For the test, the target named is call3_human CALML3 (UniProt P27482).
Sequence of call3_human CALML3 (P27482 whole entry): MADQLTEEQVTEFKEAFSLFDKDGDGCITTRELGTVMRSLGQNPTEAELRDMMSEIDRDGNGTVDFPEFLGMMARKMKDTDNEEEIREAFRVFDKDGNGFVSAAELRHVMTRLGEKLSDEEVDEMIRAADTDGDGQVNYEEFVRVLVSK

As for “Unconventional myosin-X (Homo sapiens), Q9HD67 F795A”, the “effect of a mutation on the interaction” value is “disrupting interaction”.
